According to patent US20210284734A1 (SYMPHOGEN A S, published 2021):

Assays:
Assay in all cases: SPR, Fab on captured PD-1-Fc
human PD-1 ECD-Fc E136A = target: T1, human PD-1 ECD-Fc E136A (human, UniProt Q15116 21-170)
T1 construct: not shown: human IgG1 Fc, residues P101-K330

human PD-1 ECD-Fc Q88A = target: T2, human PD-1 ECD-Fc Q88A (human, UniProt Q15116 21-170)
T2 construct: not shown: human IgG1 Fc, residues P101-K330

human PD-1 ECD-Fc S60A = target: T3, human PD-1 ECD-Fc S60A (human, UniProt Q15116 21-170)
T3 construct: not shown: human IgG1 Fc, residues P101-K330

human PD-1 ECD-Fc S87A = target: T4, human PD-1 ECD-Fc S87A (human, UniProt Q15116 21-170)
T4 construct: not shown: human IgG1 Fc, residues P101-K330

human PD-1 ECD-Fc T153A = target: T5, human PD-1 ECD-Fc T153A (human, UniProt Q15116 21-170)
T5 construct: not shown: human IgG1 Fc, residues P101-K330

human PD-1 ECD-Fc N116A = target: T6, human PD-1 ECD-Fc N116A (human, UniProt Q15116 21-170)
T6 construct: not shown: human IgG1 Fc, residues P101-K330

human PD-1 ECD-Fc L42A = target: T7, human PD-1 ECD-Fc L42A (human, UniProt Q15116 21-170)
T7 construct: not shown: human IgG1 Fc, residues P101-K330

human PD-1 ECD-Fc E84A = target: T8, human PD-1 ECD-Fc E84A (human, UniProt Q15116 21-170)
T8 construct: not shown: human IgG1 Fc, residues P101-K330

human PD-1 ECD-Fc P160A = target: T9, human PD-1 ECD-Fc P160A (human, UniProt Q15116 21-170)
T9 construct: not shown: human IgG1 Fc, residues P101-K330

human PD-1 ECD-Fc Q75A = target: T10, human PD-1 ECD-Fc Q75A (human, UniProt Q15116 21-170)
T10 construct: not shown: human IgG1 Fc, residues P101-K330

human PD-1 ECD-Fc S57A = target: T11, human PD-1 ECD-Fc S57A (human, UniProt Q15116 21-170)
T11 construct: not shown: human IgG1 Fc, residues P101-K330

human PD-1 ECD-Fc A50G = target: T12, human PD-1 ECD-Fc A50G (human, UniProt Q15116 21-170)
T12 construct: not shown: human IgG1 Fc, residues P101-K330

human PD-1 ECD-Fc D77A = target: T13, human PD-1 ECD-Fc D77A (human, UniProt Q15116 21-170)
T13 construct: not shown: human IgG1 Fc, residues P101-K330

human PD-1 ECD-Fc Q91A = target: T14, human PD-1 ECD-Fc Q91A (human, UniProt Q15116 21-170)
T14 construct: not shown: human IgG1 Fc, residues P101-K330

human PD-1 ECD-Fc F56A = target: T15, human PD-1 ECD-Fc F56A (human, UniProt Q15116 21-170)
T15 construct: not shown: human IgG1 Fc, residues P101-K330

human PD-1 ECD-Fc P101A = target: T16, human PD-1 ECD-Fc P101A (human, UniProt Q15116 21-170)
T16 construct: not shown: human IgG1 Fc, residues P101-K330

human PD-1 ECD-Fc A154G = target: T17, human PD-1 ECD-Fc A154G (human, UniProt Q15116 21-170)
T17 construct: not shown: human IgG1 Fc, residues P101-K330

human PD-1 ECD-Fc G164A = target: T18, human PD-1 ECD-Fc G164A (human, UniProt Q15116 21-170)
T18 construct: not shown: human IgG1 Fc, residues P101-K330

[1] = target: T19, human PD-1 ECD-Fc chimeric construct 11 (human, UniProt Q15116 21-170)
T19 construct: printed run together as P83IE84R; not shown: human IgG1 Fc, residues P101-K330
T19 chain: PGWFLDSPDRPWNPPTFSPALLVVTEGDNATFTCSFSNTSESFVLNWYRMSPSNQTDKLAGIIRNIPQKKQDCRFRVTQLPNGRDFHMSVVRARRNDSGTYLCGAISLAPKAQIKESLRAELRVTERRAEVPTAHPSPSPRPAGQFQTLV

[2] = target: T20, human PD-1 ECD-Fc chimeric construct 18 (human, UniProt Q15116 21-170)
T20 construct: not shown: human IgG1 Fc, residues P101-K330
T20 chain: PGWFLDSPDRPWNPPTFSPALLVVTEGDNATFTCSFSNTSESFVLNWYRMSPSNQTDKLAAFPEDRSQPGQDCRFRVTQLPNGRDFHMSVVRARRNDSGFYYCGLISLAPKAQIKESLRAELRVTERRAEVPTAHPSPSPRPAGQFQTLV

[3] = target: T21, human PD-1 ECD-Fc chimeric construct 20 (human, UniProt Q15116 21-170)
T21 construct: printed run together as I134VK135V; not shown: human IgG1 Fc, residues P101-K330
T21 chain: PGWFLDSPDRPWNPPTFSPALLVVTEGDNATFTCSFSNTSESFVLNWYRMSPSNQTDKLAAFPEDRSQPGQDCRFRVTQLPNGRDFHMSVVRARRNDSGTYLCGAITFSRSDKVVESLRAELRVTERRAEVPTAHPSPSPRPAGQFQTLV

[4] = target: T22, human PD-1 ECD-Fc chimeric construct 10 (human, UniProt Q15116 21-170)
T22 construct: printed run together as P83IE84R; not shown: human IgG1 Fc, residues P101-K330
T22 chain: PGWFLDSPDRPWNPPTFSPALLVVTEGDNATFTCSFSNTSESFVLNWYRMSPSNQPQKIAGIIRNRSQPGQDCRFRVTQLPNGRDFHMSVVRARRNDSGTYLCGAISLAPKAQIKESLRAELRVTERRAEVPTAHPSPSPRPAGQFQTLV

[5] = target: T23, human PD-1 ECD-Fc chimeric construct 19 (human, UniProt Q15116 21-170)
T23 construct: not shown: human IgG1 Fc, residues P101-K330
T23 chain: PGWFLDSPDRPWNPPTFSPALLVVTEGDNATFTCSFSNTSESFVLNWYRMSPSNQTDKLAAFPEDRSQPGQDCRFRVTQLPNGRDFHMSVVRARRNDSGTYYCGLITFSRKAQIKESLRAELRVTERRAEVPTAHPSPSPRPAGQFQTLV

[6] = target: T24, human PD-1 ECD-Fc chimeric construct 1 (human, UniProt Q15116 21-170)
T24 construct: not shown: human IgG1 Fc, residues P101-K330

T3 sequence (Q15116 21-170 S60A): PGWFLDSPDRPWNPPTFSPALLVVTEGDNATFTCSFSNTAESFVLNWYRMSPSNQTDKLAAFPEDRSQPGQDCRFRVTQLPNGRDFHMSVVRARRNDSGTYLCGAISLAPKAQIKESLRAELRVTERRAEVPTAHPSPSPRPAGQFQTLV
T5 sequence (Q15116 21-170 T153A): as the sequence (Q15116 21-170 S60A) above, with A40S, T133A counted along it
T4 sequence (Q15116 21-170 S87A): as the sequence (Q15116 21-170 S60A) above, with A40S, S67A counted along it
T14 sequence (Q15116 21-170 Q91A): as the sequence (Q15116 21-170 S60A) above, with A40S, Q71A counted along it
T15 sequence (Q15116 21-170 F56A): as the sequence (Q15116 21-170 S60A) above, with F36A, A40S counted along it
T13 sequence (Q15116 21-170 D77A): as the sequence (Q15116 21-170 S60A) above, with A40S, D57A counted along it
T17 sequence (Q15116 21-170 A154G): as the sequence (Q15116 21-170 S60A) above, with A40S, A134G counted along it
T11 sequence (Q15116 21-170 S57A): as the sequence (Q15116 21-170 S60A) above, with S37A, A40S counted along it
T1 sequence (Q15116 21-170 E136A): as the sequence (Q15116 21-170 S60A) above, with A40S, E116A counted along it
T18 sequence (Q15116 21-170 G164A): as the sequence (Q15116 21-170 S60A) above, with A40S, G144A counted along it
T7 sequence (Q15116 21-170 L42A): as the sequence (Q15116 21-170 S60A) above, with L22A, A40S counted along it
T10 sequence (Q15116 21-170 Q75A): as the sequence (Q15116 21-170 S60A) above, with A40S, Q55A counted along it
T2 sequence (Q15116 21-170 Q88A): as the sequence (Q15116 21-170 S60A) above, with A40S, Q68A counted along it
T6 sequence (Q15116 21-170 N116A): as the sequence (Q15116 21-170 S60A) above, with A40S, N96A counted along it

Binder | KD mutant/KD wild-type (human PD-1 ECD-Fc Q88A) [ratio] | KD mutant/KD wild-type (human PD-1 ECD-Fc S60A) [ratio] | KD mutant/KD wild-type (human PD-1 ECD-Fc S87A) [ratio] | KD mutant/KD wild-type (human PD-1 ECD-Fc T153A) [ratio] | KD mutant/KD wild-type (human PD-1 ECD-Fc N116A) [ratio] | KD mutant/KD wild-type (human PD-1 ECD-Fc L42A) [ratio] | KD mutant/KD wild-type (human PD-1 ECD-Fc E84A) [ratio] | KD mutant/KD wild-type (human PD-1 ECD-Fc P160A) [ratio] | KD mutant/KD wild-type (human PD-1 ECD-Fc Q75A) [ratio] | KD mutant/KD wild-type (human PD-1 ECD-Fc S57A) [ratio] | KD mutant/KD wild-type (human PD-1 ECD-Fc A50G) [ratio] | KD mutant/KD wild-type (human PD-1 ECD-Fc D77A) [ratio] | KD mutant/KD wild-type (human PD-1 ECD-Fc Q91A) [ratio] | KD mutant/KD wild-type (human PD-1 ECD-Fc F56A) [ratio] | KD mutant/KD wild-type (human PD-1 ECD-Fc P101A) [ratio] | KD mutant/KD wild-type (human PD-1 ECD-Fc A154G) [ratio] | KD mutant/KD wild-type (human PD-1 ECD-Fc G164A) [ratio] | KD mutant/KD wild-type [1] [ratio] | KD mutant/KD wild-type [2] [ratio] | KD mutant/KD wild-type [4] [ratio] | further results
13112.15380 Fab (Fab, V domains shown) VH: EVQLLESGGGLVQPGGSLRLSCAASGFTFSSYNMFWVRQAPGKGLEFVAEISGSNTGSRTWYAPAVKGRATISRDNSKNTLYLQMNSLRAEDTAVYYCAKSIYGGYCAGGYSCGVGLIDAWGQGTLVTVSS VL: SYELTQDPAVSVALGQTVRITCSGGSSDYYGWFQQKPGQAPVTVIYYNNKRPSDIPDRFSGSSSGNTASLTITGAQAEDEADYYCGNADSSVGVFGSGTKVTVL | 0.9 | 1 | 1 | 1 | 0.9 | 2.2 | 1 | 1 | 0.9 | 1.1 | 1.7 | 1 | 1 | 0.8 | 0.9 | 1 | 1 | 0.8 | 1.5 | 1 | KD mutant/KD wild-type (human PD-1 ECD-Fc E136A): 1 ratio; KD mutant/KD wild-type [3]: 0.6 ratio; KD mutant/KD wild-type [5]: 0.8 ratio; KD mutant/KD wild-type [6]: 0.4 ratio
12819.17149 Fab (Fab, V domains shown, monomeric Fab fragment) VH: EVQLLESGGGLVQPGGSLRLSCAASGFTFTRYDMVWVRQAPGKGLEWVAGIGDSNKMTRYAPAVKGRATISRDNSKNTLYLQMNSLRAEDTAVYYCAKGSCIACWDEAGRIDAWGQGTLVTVSS VL: SYELTQDPAVSVALGQTVRITCSGGGSYDGSSYYGWYQQKPGQAPVTVIYNNNNRPSDIPDRFSGSSSGNTASLTITGAQAEDEADYYCGSYDRPETNSDYVGMFGSGTKVTVL | 1.4 | 1.8 | 1.3 | 0.9 | 1.4 | 1.3 | 1.3 | 1 | 1 | 1.2 | 1.4 | 2.8 | 0.8 | 1.5 | 1.1 | 0.8 | 1.1 | 17.7 | 3.8 | 33.7 | KD mutant/KD wild-type (human PD-1 ECD-Fc E136A): 0.8 ratio; binding result [3]: no binding (tested: 1 nM to 50 nM); KD mutant/KD wild-type [5]: 175 ratio; KD mutant/KD wild-type [6]: 1.2 ratio
12865.17150 Fab (Fab, V domains shown, monomeric Fab fragment) VH: EVQLLESGGGLVQPGGSLRLSCAASGFDFSDHGMQWVRQAPGKGLEYVGVIDTTGRYTYYAPAVKGRATISRDNSKNTLYLQMNSLRAEDTAVYYCAKTTCVGGYLCNTVGSIDAWGQGTLVTVSS VL: SYELTQDPAVSVALGQTVRITCSGGGSSSYYGWYQQKPGQAPVTVIYDDTNRPSGIPDRFSGSSSGNTASLTITGAQAEDEADYYCGGYEGSSHAGIFGSGTKVTVL | 1.4 | 0.6 | 0.9 | 1 | 0.8 | 0.5 | 1 | 0.8 | 0.5 | 1 | 0.6 | 0.3 | 1 | 0.5 | 1 | 1 | 0.9 | 5.4 | 4.6 | 13.8 | binding result (human PD-1 ECD-Fc E136A): no binding (tested: 1 nM to 50 nM); binding result [3]: no binding (tested: 1 nM to 50 nM); binding result [5]: no binding (tested: 1 nM to 50 nM); KD mutant/KD wild-type [6]: 0.6 ratio
